Reference: article PMC11424739

What follows are substances tested on CC(C)CC1CC(=O)NC(=O)C1 (assay: purified protein). Settings: 50 mmol L^-1 Tris-HCl pH 8.0, 40 °C, IBI 0.10-2.0 mg mL^-1.
Format: biochemical, Paraburkholderia phytofirmans
Work on “BpIH (Paraburkholderia phytofirmans PsJN)” yielded a Km of 9.02 ± 0.51 mM, a kcat of 0.00967 ± 0.0075 s⁻¹ and a kcat/Km of 1.07 M⁻¹ s⁻¹. With “BpIH (Paraburkholderia phytofirmans PsJN; H133N/S226I/Y37F)” the Km was 7.31 ± 0.73 mM, the kcat was 0.0573 ± 0.005 s⁻¹ and the kcat/Km was 7.82 M⁻¹ s⁻¹. “BpIH (Paraburkholderia phytofirmans PsJN; H133N/S226L/Y37F)” showed a Km of 8.48 ± 1.03 mM, a kcat of 0.052 ± 0.00367 s⁻¹ and a kcat/Km of 5.67 M⁻¹ s⁻¹. In the case of “BpIH (Paraburkholderia phytofirmans PsJN; S226L)”, the Km is reported as 9.28 ± 1.09 mM, the kcat is reported as 0.0517 ± 0.00617 s⁻¹ and the kcat/Km is reported as 5.47 M⁻¹ s⁻¹.
